What is called Km is the concentration of substrate that gives half-maximal velocity. The term kcat denotes the maximal rate divided by the concentration of active sites. By kcat/Km is commonly meant the second-order rate constant that governs catalysis at low substrate concentration.

The subject of the series is O=P(O)(O)OP(=O)(O)O. As to the kind of experiment: purified protein. Conditions: pH 9.0 (100 mM Tris-HCl; optimum pH), 5 mM MgSO4, 37 °C, 0.1 µM enzyme.

Text: malachite green phosphate release, Michaelis-Menten fit on rEhHAPp49

Turning to “rEhHAPp49 (Entamoeba histolytica HM-1:IMSS)”, the Km is 12 ± 2 µM, the catalytic constant (kcat) came out at 0.177 ± 0.00333 s⁻¹ and the kcat/Km is 14700 M⁻¹ s⁻¹.

These data come from publication PMC7926622, “Structure–Function Relationship Study of a Secretory Amoebic Phosphatase: A Computational-Experimental Approach” (International Journal of Molecular Sciences, 2021).
